Assay [1] concerns the target human ROR1 expressed on the surface of cancer cells (human) (UniProt Q01973). Nature of the assay: FACS on HBL-2 cells (ROR1-expressing), isotype control, concentration not given; PE-A, Anti-EK Biotin.
Assay [2] shares this target. As to the kind of experiment: FACS on PC-3 cells (ROR1-expressing), isotype control, concentration not given; PE-A, Anti-EK Biotin.

human ROR1 expressed on the surface of cancer cells (human), sequence (Q01973 30-937): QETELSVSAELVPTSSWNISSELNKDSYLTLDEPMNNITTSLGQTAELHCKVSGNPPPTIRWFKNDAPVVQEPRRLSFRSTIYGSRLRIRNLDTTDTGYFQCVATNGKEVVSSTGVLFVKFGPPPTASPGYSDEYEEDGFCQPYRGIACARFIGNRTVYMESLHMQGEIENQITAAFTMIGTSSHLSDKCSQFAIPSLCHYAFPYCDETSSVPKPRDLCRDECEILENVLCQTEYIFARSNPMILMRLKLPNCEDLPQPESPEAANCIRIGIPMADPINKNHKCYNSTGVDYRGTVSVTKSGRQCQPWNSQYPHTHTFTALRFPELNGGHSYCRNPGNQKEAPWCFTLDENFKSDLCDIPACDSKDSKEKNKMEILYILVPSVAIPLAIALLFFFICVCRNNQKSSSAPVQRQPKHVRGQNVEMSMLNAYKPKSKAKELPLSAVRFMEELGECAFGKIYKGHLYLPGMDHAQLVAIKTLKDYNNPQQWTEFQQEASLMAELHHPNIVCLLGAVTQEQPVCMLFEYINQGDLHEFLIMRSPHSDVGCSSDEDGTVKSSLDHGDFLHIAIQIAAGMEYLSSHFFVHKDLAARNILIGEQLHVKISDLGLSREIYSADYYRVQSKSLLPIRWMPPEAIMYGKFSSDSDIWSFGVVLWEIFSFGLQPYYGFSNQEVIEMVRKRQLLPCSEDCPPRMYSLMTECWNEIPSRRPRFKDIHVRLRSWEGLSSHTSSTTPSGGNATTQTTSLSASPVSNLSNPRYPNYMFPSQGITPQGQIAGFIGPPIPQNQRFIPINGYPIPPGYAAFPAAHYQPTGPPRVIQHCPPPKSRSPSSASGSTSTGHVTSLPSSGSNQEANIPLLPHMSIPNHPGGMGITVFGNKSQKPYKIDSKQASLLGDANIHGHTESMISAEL

On to Isotype Control, for which the results for the Mean: PE-A in assay [1] and in assay [2] were 13.8 and 85.2, respectively.
